Molecular target: RIa isoform of PKA (type I alpha regulatory subunit of cAMP-dependent protein kinase)
Assay: binding in vitro, method not described

fold weaker binding than the Val variant: 3 fold
Substance: D-AKAP2 (AKAP10) Ile variant, isoleucine at position 646 of SEQ ID NO:2 (from UniProt O43572 507-662)
